B1: FLHIP1: wild type full length HIP1 expressed in cells (protein)
chain: MDRMASSMKQVPNPLPKVLSRRGVGAGLEAAERESFERTQTVSINKAINTQEVAVKEKHARTCILGTHHEKGAQTFWSVVNRLPLSSNAVLCWKFCHVFHKLLRDGHPNVLKDSLRYRNELSDMSRMWGYLSEGYGQLCSIYLKLLRTKMEYHTKNPRFPGNLQMSDRQLDEAGESDVNNFSQLTVEMFDYLECELNLFQTVFNSLDMSRSVSVTAAGQCRLAPLIQVILDCSHLYDYTVKLLFKLHSCLPADTLQGHRDRFMEQFTKLKDLFYRSSNLQYFKRLIQIPQLPENPPNFLRASALSEHISPVVVIPAEASSPDSEPVLEKDDLMDMDASQQNLFDNKFDDIFGSSFSSDPFNFNSQNGVNKDEKDHLIERLYREISGLKAQLENMKTESQRVVLQLKGHVSELEADLAEQQHLRQQAADDCEFLRAELDELRRQREDTEKAQRSLSEIERKAQANEQRYSKLKEKYSELVQNHADLLRKNAEVTKQVSMARQAQVDLEREKKELEDSLERISDQGQRKTQEQLEVLESLKQELATSQRELQVLQGSLETSAQSEANWAAEFAELEKERDSLVSGAAHREEELSALRKELQDTQLKLASTEESMCQLAKDQRKMLLVGSRKAAEQVIQDALNQLEEPPLISCAGSADHLLSTVTSISSCIEQLEKSWSQYLACPEDISGLLHSITLLAHLTSDAIAHGATTCLRAPPEPADSLTEACKQYGRETLAYLASLEEEGSLENADSTAMRNCLSKIKAIGEELLPRGLDIKQEELGDLVDKEMAATSAAIETATARIEEMLSKSRAGDTGVKLEVNERILGCCTSLMQAIQVLIVASKDLQREIVESGRGTASPKEFYAKNSRWTEGLISASKAVGWGATVMVDAADLVVQGRGKFEELMVCSHEIAASTAQLVAASKVKADKDSPNLAQLQQASRGVNQATAGVVASTISGKSQIEETDNMDFSSMTLTQIKRQEMDSQVRVLELENELQKERQKLGELRKKHYELAGVAEGWEEGTEASPPTLQEVVTEKESQTNTPYVSVNPCYLSRVCYFPSHRPNPWSPRGSHTTAITQCRGHAHFQRLPPRHPFCLDPWISTASYGGWLGFLVLFFFFKFHSHSQLSQRAHPWGVSRAPQLWLQRWCCPGLSVLHLRLHTDQVLAHPVHAPGSGGAAEQLSSKSRRRVSAFPSSIPAESLCPPLQGRRQQKEGQEGSHSPVPVTRLKNLITCLNGAGEINNTTSLPETVREWSLSSGPSPLAQRRSVGVIPNSFLQTSALASSIGRSFHLLRNQTRKIRCNCSHQGRTLYLVCYPYLLLTSLKQQQPTKRCLEQSELQVLQSSSFCPATSAFKNQKKGQGAGLLLTWIPKQGDHLELLGQRKERTEPAAPTPFSHMPQALAALWTGGQRAHEQLARDGQPNSTFPLLDGPQHLSDLLILGKQRLPSLSIATHWWPSSTSEFLQPGRPLEHAXEGP
modifications: X: residue not identified in the source
notes: wild type full length HIP1 expressed in cells
B2: HIP1/deltaE: dominant negative mutant of HIP1 lacking the ENTH domain (SEQ ID NO: 4) (protein, listed as Homo sapiens)
chain: MFDYLECELNLFQTVFNSLDMSRSVSVTAAGQCRLAPLIQVILDCSHLYDYTVKLLFKLHSCLPADTLQGHRDRFMEQFTKLKDLFYRSSNLQYFKRLIQIPQLPENPPNFLRASALSEHISPVVVIPAEASSPDSEPVLEKDDLMDMDASQQNLFDNKFDDIFGSSFSSDPFNFNSQNGVNKDEKDHLIERLYREISGLKAQLENMKTESQRVVLQLKGHVSELEADLAEQQHLRQQAADDCEFLRAELDELRRQREDTEKAQRSLSEIERKAQANEQRYSKLKEKYSELVQNHADLLRKNAEVTKQVSMARQAQVDLEREKKELEDSLERISDQGQRKTQEQLEVLESLKQELATSQRELQVLQGSLETSAQSEANWAAEFAELEKERDSLVSGAAHREEELSALRKELQDTQLKLASTEESMCQLAKDQRKMLLVGSRKAAEQVIQDALNQLEEPPLISCAGSADHLLSTVTSISSCIEQLEKSWSQYLACPEDISGLLHSITLLAHLTSDAIAHGATTCLRAPPEPADSLTEACKQYGRETLAYLASLEEEGSLENADSTAMRNCLSKIKAIGEELLPRGLDIKQEELGDLVDKEMAATSAAIETATARIEEMLSKSRAGDTGVKLEVNERILGCCTSLMQAIQVLIVASKDLQREIVESGRGTASPKEFYAKNSRWTEGLISASKAVGWGATVMVDAADLVVQGRGKFEELMVCSHEIAASTAQLVAASKVKADKDSPNLAQLQQASRGVNQATAGVVASTISGKSQIEETDNMDFSSMTLTQIKRQEMDSQVRVLELENELQKERQKLGELRKKHYELAGVAEGWEEGTEASPPTLQEVVTEKESQTNTPYVSVNPCYLSRVCYFPSHRPNPWSPRGSHTTAITQCRGHAHFQRLPPRHPFCLDPWISTASYGGWLGFLVLFFFFKFHSHSQLSQRAHPWGVSRAPQLWLQRWCCPGLSVLHLRLHTDQVLAHPVHAPGSGGAAEQLSSKSRRRVSAFPSSIPAESLCPPLQGRRQQKEGQEGSHSPVPVTRLKNLITCLNGAGEINNTTSLPETVREWSLSSGPSPLAQRRSVGVIPNSFLQTSALASSIGRSFHLLRNQTRKIRCNCSHQGRTLYLVCYPYLLLTSLKQQQPTKRCLEQSELQVLQSSSFCPATSAFKNQKKGQGAGLLLTWIPKQGDHLELLGQRKERTEPAAPTPFSHMPQALAALWTGGQRAHEQLARDGQPNSTFPLLDGPQHLSDLLILGKQRLPSLSIATHWWPSSTSEFLQPGRPLEH

Tested on: cellular survival
Experiment: Effect of expression of HIP1 dominant negative mutant on cellular survival
Format: cell-based
Details: for induction of cell death: expression of construct
Source text: The effect of expression of a HIP1 dominant negative mutant on cellular survival was next investigated. […] 39% of HIP1/DE-expressing cells and 50% of caspase 9-expressing cells were apoptotic. […] Expression of the endogenous HIP1, wild type HIP1, HIP1/DE and Caspase 9 was documented by Western blot analysis as shown in the bottom of FIG. 6b.

| Molecule | correction of HIP1 deltaE apoptosis (co-expression with HIP1 deltaE, FIG. 12 and 13) | induction of cell death (FIG. 6b) | apoptotic cells (cells expressing the construct, FIG. 6b) [%] |
| --- | --- | --- | --- |
| B1 | correction of HIP1 deltaE apoptosis | did not induce cell death | – |
| B2 | – | promoted cell death | 39 |
